Assays:
human CD47 [1] = target: T1, human CD47 (human, UniProt Q08722 19-323); experiment: flow cytometry, titration of SIRPα-Fc-bio on Jurkat cells
human CD47 [2] = target: T1, human CD47; experiment: cell-based or functional assay

EC70 (human CD47 [1]) [µg/mL] | phagocytosis of Raji tumor cell line targets by primary human macrophages (EC50) (human CD47 [2]) [µg/mL] | Molecule
7.5 |  | biotinylated fusion protein of SIRPα (SIRPα-Fc-bio) (Fc fusion)
 | ~0.3 | anti-CD47 antibody 2.3D11 (antibody, V domains shown) VH: QVQLQESGPGLVKPSGTLSLTCAVSGVSIRSINWWNWVRQPPGKGLEWIGEIYHSGSTNYNPSLKSRVTISVDKSKNQFSLKLNSVTAADTAVYYCARDGGIAVTDYYYYGLDVWGQGTTVTVSS VL: EIVLTQSPATLSLSPGERATLSCRASESVSSNLAWYQQKPGQAPRLLIYGAFNRATGIPARFSGSGSGTDFTLTISSLEPEDFAVYYCQQRSDWFTFGGGTKVEIKR
